# PMC2565473, “A Ligand Peptide Motif Selected from a Cancer Patient Is a Receptor-Interacting Site within Human Interleukin-11” (PLoS ONE, 2008)
# Bridges are numbered along the chain shown (N, C = ends). Where no end group is shown, it is not given here.
# T1: GST-IL-11 G115A (human, UniProt P20809 22-199, G115A)
# T1 construct: human interleukin-11, open reading frame in pGEX4T-1, alanine mutant made on the GST-IL-11 plasmid; As m7 with the mutation; also called Gly^115 mutant; source: E. coli BL21, purified from inclusion bodies (solubilized in 6 M guanidine-HCl)
# T1 sequence (looked up): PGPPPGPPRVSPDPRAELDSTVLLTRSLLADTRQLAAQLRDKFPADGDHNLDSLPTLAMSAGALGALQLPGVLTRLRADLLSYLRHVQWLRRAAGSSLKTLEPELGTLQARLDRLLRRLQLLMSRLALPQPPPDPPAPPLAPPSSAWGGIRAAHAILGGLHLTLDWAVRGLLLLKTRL
# T2: GST-IL-11 S117A (human, UniProt P20809 22-199, S117A)
# T2 construct: human interleukin-11, open reading frame in pGEX4T-1, alanine mutant made on the GST-IL-11 plasmid; As m7 with the mutation; also called Ser^117 mutant; source: E. coli BL21, purified from inclusion bodies (solubilized in 6 M guanidine-HCl)
# T2 sequence (looked up): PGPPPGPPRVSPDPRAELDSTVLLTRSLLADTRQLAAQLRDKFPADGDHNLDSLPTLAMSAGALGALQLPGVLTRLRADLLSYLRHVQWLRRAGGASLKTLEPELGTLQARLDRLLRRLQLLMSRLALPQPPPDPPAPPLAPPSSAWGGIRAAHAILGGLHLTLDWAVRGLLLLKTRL
# T3: GST-IL-11 G116A (human, UniProt P20809 22-199, G116A)
# T3 construct: human interleukin-11, open reading frame in pGEX4T-1, alanine mutant made on the GST-IL-11 plasmid; As m7 with the mutation; also called Gly^116 mutant; source: E. coli BL21, purified from inclusion bodies (solubilized in 6 M guanidine-HCl)
# T3 sequence (looked up): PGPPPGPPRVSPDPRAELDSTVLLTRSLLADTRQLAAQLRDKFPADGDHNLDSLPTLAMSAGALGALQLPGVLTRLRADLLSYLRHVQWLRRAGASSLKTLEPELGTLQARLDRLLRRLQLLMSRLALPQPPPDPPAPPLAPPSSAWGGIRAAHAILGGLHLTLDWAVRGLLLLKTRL
# T4: GST-IL-11 R112A (human, UniProt P20809 22-199, R112A)
# T4 construct: human interleukin-11, open reading frame in pGEX4T-1, alanine mutant made on the GST-IL-11 plasmid; As m7 with the mutation; also called Arg^112 mutant; source: E. coli BL21, purified from inclusion bodies (solubilized in 6 M guanidine-HCl)
# T4 sequence (looked up): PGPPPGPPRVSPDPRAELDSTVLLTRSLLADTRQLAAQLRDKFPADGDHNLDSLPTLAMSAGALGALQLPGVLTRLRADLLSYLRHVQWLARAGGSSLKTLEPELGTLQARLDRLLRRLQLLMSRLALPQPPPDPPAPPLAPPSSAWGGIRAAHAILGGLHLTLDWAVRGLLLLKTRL
# B1: synthetic cyclic peptide CGRRAGGSC (peptide)
# peptide: CGRRAGGSC
# modifications: disulfide 1-9
# notes: peptide selected from a combinatorial phage library in a cancer patient; RRAGGS corresponds to residues 112-117 of human IL-11; also called IL-11-like peptide; source: synthetic peptide, synthesized and cyclized at AnaSpec
# B2: IL-11Rα (recombinant, extracellular domain fused to the Fc region of human IgG) (Fc fusion, UniProt Q14626 24-370, looked up)
# chain: SPCPQAWGPPGVQYGQPGRSVKLCCPGVTAGDPVSWFRDGEPKLLQGPDSGLGHELVLAQADSTDEGTYICQTLDGALGGTVTLQLGYPPARPVVSCQAADYENFSCTWSPSQISGLPTRYLTSYRKKTVLGADSQRRSPSTGPWPCPQDPLGAARCVVHGAEFWSQYRINVTEVNPLGASTRLLDVSLQSILRPDPPQGLRVESVPGYPRRLRASWTYPASWPCQPHFLLKFRLQYRPAQHPAWSTVEPAGLEEVITDAVAGLPHAVRVSARDFLDAGTWSTWSPEAWGTPSTGTIPKEIPAWGQLHTQPEVEPQVDSPAPPRPSLQPHPRLLDHRDSVEQVAVLA
# notes: human interleukin-11 receptor alpha, extracellular domain; The methods of the NMR and of the proliferation assay name only 'IL-11Rα' or 'human sIL-11Rα'; also called IL-11 receptor α; sIL-11Rα; source: bought: R&D Systems
# B3: CGARAGGSC phage (Arg^3 to Ala mutant of the … phage) (peptide)
# peptide: CGARAGGSC
# notes: source: phage display, cloned into SfiI-digested fUSE5 vector
# B4: CGRRAAGSC phage (Gly^6 to Ala mutant of the … phage) (peptide)
# peptide: CGRRAAGSC
# notes: as for B3
# Tests used:
# [1] = molecular target: B2; assay: NMR titration; 1D-1H and 2D-1H TOCSY/NOESY at 600 MHz; IL-11Rα 6 µM, peptide up to 400 µM (molar excess ∼16-, 33- and 66-fold); 50 mM sodium phosphate, 5 mM sodium azide, 10% D2O; 25°C; settings: both partners purified
# [2] = molecular target: T1, GST-IL-11 G115A; assay: ELISA; GST fusion proteins coated overnight on 96-well plates at 5 µg/ml, blocked with 3% BSA in PBS; IL-11Rα (1 µg/ml) incubated for 2 h; detected with anti-human Fc HRP-conjugated antibody; settings: both partners purified
# [3] = molecular target: T2, GST-IL-11 S117A; assay: as above; settings: both partners purified
# [4] = molecular target: T3, GST-IL-11 G116A; assay: as above; settings: both partners purified
# [5] = molecular target: T4, GST-IL-11 R112A; assay: as above; settings: both partners purified
# [6] = molecular target: GST-IL-11 R113A (human) (UniProt P20809); assay: as above
# [7] = molecular target: B2; assay: phage binding assay; alanine-scanning phage on immobilized IL-11Rα, done as a1; result given as grade of the ratio binding to IL-11Rα / binding to BSA; in duplicate, repeated at least four times; settings: one partner purified
binder,measurement,setting,value
B1,binding result,[1],binds
B2,% binding inhibition relative to wild-type IL-11,[2],71%
same,% binding inhibition relative to wild-type IL-11,[3],86%
same,% binding inhibition relative to wild-type IL-11,[4],29%
same,% binding inhibition relative to wild-type IL-11,[5],43%
same,% binding inhibition relative to wild-type IL-11,[6],86%
B3,% reduction of binding relative to the … phage,[7],> 70%
B4,% reduction of binding relative to the … phage,[7],> 70%
